Source: publication PMC3160658

Assays:
[1] = target: T1, RAD52 (Homo sapiens) (UniProt P43351); assay: competition
T1 sequence: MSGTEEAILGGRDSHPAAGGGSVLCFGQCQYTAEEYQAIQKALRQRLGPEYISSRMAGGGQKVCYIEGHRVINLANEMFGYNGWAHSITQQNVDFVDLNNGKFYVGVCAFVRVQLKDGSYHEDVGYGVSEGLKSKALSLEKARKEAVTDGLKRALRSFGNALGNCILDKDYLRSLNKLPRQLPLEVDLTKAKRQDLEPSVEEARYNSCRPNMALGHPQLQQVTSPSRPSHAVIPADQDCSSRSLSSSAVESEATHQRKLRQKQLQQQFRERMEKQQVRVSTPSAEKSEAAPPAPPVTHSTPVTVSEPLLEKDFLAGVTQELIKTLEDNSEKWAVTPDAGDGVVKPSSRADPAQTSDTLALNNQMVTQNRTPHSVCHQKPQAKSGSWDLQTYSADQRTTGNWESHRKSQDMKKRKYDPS

[2] = target: T1, RAD52 (Homo sapiens); assay: single-molecule FRET; conditions: amino modifier C6 dT at last dT of gap
[3] = target: RAD52 Y104pCMF Y104pCMF (Homo sapiens) (UniProt P43351); assay: single-molecule FRET; conditions: amino modifier C6 dT at last dT of gap
[4] = target: RAD52 Y104pCMF Y104pCMF (Homo sapiens) (UniProt P43351); assay: FRET titration; conditions: scale: nM protein at maximum FRET

For linearized PhiX174 RFI dsDNA, the binding signal (% ssDNA released at 150 nM nt dsDNA) [1] was 95.1.
Substance “TATGCTCTAAGCCATCCATGTATTTTTTTTTTTTTTTTTTTTTTTTTTTTCCCTAGATACCAGTAGATTCGGAAA / TTTCCGAATCTACTGGTATCTAGGG / TACATGGATGGCTTAGAGCATA [gapped DNA, 28-nt (dT) gap]” has a binding signal (% molecules in high FRET (wrapped) state) [2] of 9.47 and a binding signal (% molecules in high FRET (wrapped) state) [3] of 43.5.
With “TTTTTTTTTTTTTTTTTTTTTTTTTTTTTT [Cy5-(dT)30-Cy3]” the binding signal [4] was 5.
